# Source: IntAct's records for PubMed 29892012
# B1: Kinetochore protein NDC80 homolog (Homo sapiens), O14777 (parent)
# chain: MKRSSVSSGGAGRLSMQELRSQDVNKQGLYTPQTKEKPTFGKLSINKPTSERKVSLFGKRTSGHGSRNSQLGIFSSSEKIKDPRPLNDKAFIQQCIRQLCEFLTENGYAHNVSMKSLQAPSVKDFLKIFTFLYGFLCPSYELPDTKFEEEVPRIFKDLGYPFALSKSSMYTVGAPHTWPHIVAALVWLIDCIKIHTAMKESSPLFDDGQPWGEETEDGIMHNKLFLDYTIKCYESFMSGADSFDEMNAELQSKLKDLFNVDAFKLESLEAKNRALNEQIARLEQEREKEPNRLESLRKLKASLQGDVQKYQAYMSNLESHSAILDQKLNGLNEEIARVELECETIKQENTRLQNIIDNQKYSVADIERINHERNELQQTINKLTKDLEAEQQKLWNEELKYARGKEAIETQLAEYHKLARKLKLIPKGAENSKGYDFEIKFNPEAGANCLVKYRAQVYVPLKELLNETEEEINKALNKKMGLEDTLEQLNAMITESKRSVRTLKEEVQKLDDLYQQKIKEAEEEDEKCASELESLEKHKHLLESTVNQGLSEAMNELDAVQREYQLVVQTTTEERRKVGNNLQRLLEMVATHVGSVEKHLEEQIAKVDREYEECMSEDLSENIKEIRDKYEKKATLIKSSEE
# partner: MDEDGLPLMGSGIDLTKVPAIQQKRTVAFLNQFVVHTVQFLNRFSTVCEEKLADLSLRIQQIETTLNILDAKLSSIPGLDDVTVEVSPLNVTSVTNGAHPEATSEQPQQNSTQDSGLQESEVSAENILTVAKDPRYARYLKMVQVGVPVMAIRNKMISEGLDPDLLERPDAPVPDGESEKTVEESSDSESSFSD
# B2: Ligand of Numb protein X 2 (Homo sapiens), Q8N448 (parent)
# chain: MGTTSDEMVSVEQTSSSSLNPLCFECGQQHWTRENHLYNYQNEVDDDLVCHICLQPLLQPLDTPCGHTFCYKCLRNFLQEKDFCPLDRKRLHFKLCKKSSILVHKLLDKLLVLCPFSSVCKDVMQRCDLEAHLKNRCPGASHRRVALERRKTSRTQAEIENENGPTLLDPAGTLSPEADCLGTGAVPVERHLTSASLSTWSEEPGLDNPAFEESAGADTTQQPLSLPEGEITTIEIHRSNPYIQLGISIVGGNETPLINIVIQEVYRDGVIARDGRLLAGDQILQVNNYNISNVSHNYARAVLSQPCNTLHLTVLRERRFGNRAHNHSDSNSPREEIFQVALHKRDSGEQLGIKLVRRTDEPGVFILDLLEGGLAAQDGRLSSNDRVLAINGHDLKYGTPELAAQIIQASGERVNLTIARPGKPQPGNTIREAGNHSSSSQHHTPPPYYSRPSSHKDLTQCVTCQEKHITVKKEPHESLGMTVAGGRGSKSGELPIFVTSVPPHGCLARDGRIKRGDVLLNINGIDLTNLSHSEAVAMLKASAASPAVALKALEVQIVEEATQNAEEQPSTFSENEYDASWSPSWVMWLGLPSTLHSCHDIVLRRSYLGSWGFSIVGGYEENHTNQPFFIKTIVLGTPAYYDGRLKCGDMIVAVNGLSTVGMSHSALVPMLKEQRNKVTLTVICWPGSLV
# B3: Ligand of Numb protein X 2 (Homo sapiens), Q8N448 (parent)
# chain: B2 chain
# partner: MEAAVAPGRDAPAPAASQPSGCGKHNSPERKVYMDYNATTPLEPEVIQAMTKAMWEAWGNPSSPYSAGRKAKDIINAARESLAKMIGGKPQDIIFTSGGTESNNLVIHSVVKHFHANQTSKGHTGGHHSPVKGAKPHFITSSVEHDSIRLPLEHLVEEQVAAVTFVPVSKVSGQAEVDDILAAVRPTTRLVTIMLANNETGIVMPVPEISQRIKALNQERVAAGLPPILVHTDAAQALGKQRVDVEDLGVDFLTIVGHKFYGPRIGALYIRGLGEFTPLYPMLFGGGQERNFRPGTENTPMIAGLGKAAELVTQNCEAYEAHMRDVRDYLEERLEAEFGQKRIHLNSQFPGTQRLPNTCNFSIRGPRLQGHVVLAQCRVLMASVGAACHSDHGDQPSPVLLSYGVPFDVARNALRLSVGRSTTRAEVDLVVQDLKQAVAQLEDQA
# B4: DNA topoisomerase 3-beta-1 (Homo sapiens), O95985 (parent)
# chain: MKTVLMVAEKPSLAQSIAKILSRGSLSSHKGLNGACSVHEYTGTFAGQPVRFKMTSVCGHVMTLDFLGKYNKWDKVDPAELFSQAPTEKKEANPKLNMVKFLQVEGRGCDYIVLWLDCDKEGENICFEVLDAVLPVMNKAHGGEKTVFRARFSSITDTDICNAMACLGEPDHNEALSVDARQELDLRIGCAFTRFQTKYFQGKYGDLDSSLISFGPCQTPTLGFCVERHDKIQSFKPETYWVLQAKVNTDKDRSLLLDWDRVRVFDREIAQMFLNMTKLEKEAQVEATSRKEKAKQRPLALNTVEMLRVASSSLGMGPQHAMQTAERLYTQGYISYPRTETTHYPENFDLKGSLRQQANHPYWADTVKRLLAEGINRPRKGHDAGDHPPITPMKSATEAELGGDAWRLYEYITRHFIATVSHDCKYLQSTISFRIGPELFTCSGKTVLSPGFTEVMPWQSVPLEESLPTCQRGDAFPVGEVKMLEKQTNPPDYLTEAELITLMEKHGIGTDASIPVHINNICQRNYVTVESGRRLKPTNLGIVLVHGYYKIDAELVLPTIRSAVEKQLNLIAQGKADYRQVLGHTLDVFKRKFHYFVDSIAGMDELMEVSFSPLAATGKPLSRCGKCHRFMKYIQAKPSRLHCSHCDETYTLPQNGTIKLYKELRCPLDDFELVLWSSGSRGKSYPLCPYCYNHPPFRDMKKGMGCNECTHPSCQHSLSMLGIGQCVECESGVLVLDPTSGPKWKVACNKCNVVAHCFENAHRVRVSADTCSVCEAALLDVDFNKAKSPLPGDETQHMGCVFCDPVFQELVELKHAASCHPMHRGGPGRRQGRGRGRARRPPGKPNPRRPKDKMSALAAYFV
# B5: Protein VAC14 homolog (Homo sapiens), Q08AM6 (parent)
# chain: MNPEKDFAPLTPNIVRALNDKLYEKRKVAALEIEKLVREFVAQNNTVQIKHVIQTLSQEFALSQHPHSRKGGLIGLAACSIALGKDSGLYLKELIEPVLTCFNDADSRLRYYACEALYNIVKVARGAVLPHFNVLFDGLSKLAADPDPNVKSGSELLDRLLKDIVTESNKFDLVSFIPLLRERIYSNNQYARQFIISWILVLESVPDINLLDYLPEILDGLFQILGDNGKEIRKMCEVVLGEFLKEIKKNPSSVKFAEMANILVIHCQTTDDLIQLTAMCWMREFIQLAGRVMLPYSSGILTAVLPCLAYDDRKKSIKEVANVCNQSLMKLVTPEDDELDELRPGQRQAEPTPDDALPKQEGTASGGPDGSCDSSFSSGISVFTAASTERAPVTLHLDGIVQVLNCHLSDTAIGMMTRIAVLKWLYHLYIKTPRKMFRHTDSLFPILLQTLSDESDEVILKDLEVLAEIASSPAGQTDDPGPLDGPDLQASHSELQVPTPGRAGLLNTSGTKGLECSPSTPTMNSYFYKFMINLLKRFSSERKLLEVRGPFIIRQLCLLLNAENIFHSMADILLREEDLKFASTMVHALNTILLTSTELFQLRNQLKDLKTLESQNLFCCLYRSWCHNPVTTVSLCFLTQNYRHAYDLIQKFGDLEVTVDFLAEVDKLVQLIECPIFTYLRLQLLDVKNNPYLIKALYGLLMLLPQSSAFQLLSHRLQCVPNPELLQTEDSLKAAPKSQKADSPSIDYAELLQHFEKVQNKHLEVRHQRSGRGDHLDRRVVL
# partner: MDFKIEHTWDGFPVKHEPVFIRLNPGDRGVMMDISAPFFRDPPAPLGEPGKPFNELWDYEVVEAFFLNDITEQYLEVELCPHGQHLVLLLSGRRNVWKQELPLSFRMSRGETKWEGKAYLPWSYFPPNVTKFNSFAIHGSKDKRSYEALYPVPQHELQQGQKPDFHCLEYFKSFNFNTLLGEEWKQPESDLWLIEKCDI
# B6: Genetic suppressor element 1 (Homo sapiens), Q14687 (parent)
# chain: MKGMSHEPKSPSLGMLSTATRTTATVNPLTPSPLNGALVPSGSPATSSALSAQAAPSSSFAAALRKLAKQAEEPRGSSLSSESSPVSSPATNHSSPASTPKRVPMGPIIVPPGGHSVPSTPPVVTIAPTKTVNGVWRSESRQDAGSRSSSGGRERLIVEPPLPQEKAGGPAIPSHLLSTPYPFGLSPSSVVQDSRFPPLNLQRPVHHVVPPSTVTEDYLRSFRPYHTTDDLRMSSLPPLGLDPATAAAYYHPSYLAPHPFPHPAFRMDDSYCLSALRSPFYPIPTPGSLPPLHPSAMHLHLSGVRYPPELSHSSLAALHSERMSGLSAERLQMDEELRREREREREREREREADREREKEREREREKEREQEKEREREKERERELERQREQRAREKELLAAKALEPSFLPVAELHGLRGHATEERGKPSEQLTPTRAEKLKDAGLQAPKPVQHPLHPVPTPHHTVPSLISNHGIFSLPSSSAATALLIQRTNEEEKWLARQRRLRQEKEDRQSQVSEFRQQVLEQHLDMGRPPVPAEAEHRPESTTRPGPNRHEPGGRDPPQHFGGPPPLISPKPQLHAAPTALWNPVSLMDNTLETRRAESHSLHSHPAAFEPSRQAAVPLVKVERVFCPEKAEEGPRKREPAPLDKYQPPPPPPREGGSLEHQPFLPGPGPFLAELEKSTQTILGQQRASLPQAATFGELSGPLKPGSPYRPPVPRAPDPAYIYDEFLQQRRRLVSKLDLEERRRREAQEKGYYYDLDDSYDESDEEEVRAHLRCVAEQPPLKLDTSSEKLEFLQLFGLTTQQQKEELVAQKRRKRRRMLRERSPSPPTIQSKRQTPSPRLALSTRYSPDEMNNSPNFEEKKKFLTIFNLTHISAEKRKDKERLVEMLRAMKQKALSAAVADSLTNSPRDSPAVSLSEPATQQASLDVEKPVGVAASLSDIPKAAEPGKLEQVRPQELSRVQELAPASGEKARLSEAPGGKKSLSMLHYIRGAAPKDIPVPLSHSTNGKSKPWEPFVAEEFAHQFHESVLQSTQKALQKHKGSVAVLSAEQNHKVDTSVHYNIPELQSSSRAPPPQHNGQQEPPTARKGPPTQELDRDSEEEEEEDDEDGEDEEEVPKRKWQGIEAVFEAYQEHIEEQNLERQVLQTQCRRLEARHYSLSLTAEQLSHSVAELRSQKQKMVSERERLQAELDHLRKCLALPAMHWPRGYLKGYPR
# partner: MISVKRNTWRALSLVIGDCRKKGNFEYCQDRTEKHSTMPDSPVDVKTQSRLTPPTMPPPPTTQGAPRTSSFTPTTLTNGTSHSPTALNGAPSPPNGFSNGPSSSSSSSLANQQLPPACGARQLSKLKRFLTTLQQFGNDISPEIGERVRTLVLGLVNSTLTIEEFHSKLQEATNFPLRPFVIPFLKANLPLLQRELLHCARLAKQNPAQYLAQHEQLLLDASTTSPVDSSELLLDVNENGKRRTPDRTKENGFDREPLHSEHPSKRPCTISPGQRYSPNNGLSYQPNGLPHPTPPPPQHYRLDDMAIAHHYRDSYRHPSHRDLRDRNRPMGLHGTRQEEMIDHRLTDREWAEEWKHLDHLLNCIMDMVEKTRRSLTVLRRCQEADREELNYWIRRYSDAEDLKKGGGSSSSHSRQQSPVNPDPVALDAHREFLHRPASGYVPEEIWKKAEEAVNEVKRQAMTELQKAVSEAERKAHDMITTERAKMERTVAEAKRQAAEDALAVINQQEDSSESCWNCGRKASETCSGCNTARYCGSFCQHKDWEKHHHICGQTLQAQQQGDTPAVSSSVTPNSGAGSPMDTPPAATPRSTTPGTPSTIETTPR
# Variants of: B1
# Details: with wasc3_human WASHC3, Q9Y3C0
row,Variant,effect of a mutation on the interaction
1,K288E,with no effect

# Variants of: B2
# Details: with at2l2_human PHYKPL
row,Variant,effect of a mutation on the interaction
1,P669A,with no effect

# Variants of: B2
# Details: with ip6k2_human IP6K2, Q9UHH9
# ip6k2_human IP6K2, Q9UHH9, sequence (Q9UHH9 whole entry): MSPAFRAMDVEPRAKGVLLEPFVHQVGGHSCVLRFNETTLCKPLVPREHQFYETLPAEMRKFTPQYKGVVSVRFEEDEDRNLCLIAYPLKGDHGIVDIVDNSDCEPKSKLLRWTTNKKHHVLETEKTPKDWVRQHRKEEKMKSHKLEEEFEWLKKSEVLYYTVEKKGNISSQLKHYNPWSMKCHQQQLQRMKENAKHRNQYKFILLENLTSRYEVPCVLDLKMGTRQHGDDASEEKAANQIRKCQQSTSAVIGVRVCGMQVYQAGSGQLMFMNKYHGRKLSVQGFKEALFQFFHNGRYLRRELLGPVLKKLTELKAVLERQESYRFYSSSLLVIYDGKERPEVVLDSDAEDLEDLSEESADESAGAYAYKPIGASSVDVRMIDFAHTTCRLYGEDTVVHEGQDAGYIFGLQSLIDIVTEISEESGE
row,Variant,effect of a mutation on the interaction
1,P669A,with no effect

# Variants of: B2
# Details: with atpb_human ATP5F1B
row,Variant,effect of a mutation on the interaction
1,P669A,with no effect

# Variants of: B2
# Details: with optn_human OPTN
row,Variant,effect of a mutation on the interaction
1,P669A,with no effect

# Variants of: B2
# Details: with tbb5_human TUBB
row,Variant,effect of a mutation on the interaction
1,P669A,with no effect

# Variants of: B2
# Details: with mk09_human MAPK9, P45984
row,Variant,effect of a mutation on the interaction
1,P669A,with no effect

# Variants of: B2
# Details: with ptcd3_human PTCD3, Q96EY7
row,Variant,effect of a mutation on the interaction
1,P669A,with no effect

# Variants of: B2
# Details: with lrc8e_human LRRC8E
row,Variant,effect of a mutation on the interaction
1,P669A,with no effect

# Variants of: B3
# Details: with scly_human SCLY
row,Variant,effect of a mutation on the interaction
1,P669A,with no effect

# Variants of: B4
# Details: with spre2_human SPRED2, Q7Z698
# spre2_human SPRED2, Q7Z698, sequence (Q7Z698 whole entry): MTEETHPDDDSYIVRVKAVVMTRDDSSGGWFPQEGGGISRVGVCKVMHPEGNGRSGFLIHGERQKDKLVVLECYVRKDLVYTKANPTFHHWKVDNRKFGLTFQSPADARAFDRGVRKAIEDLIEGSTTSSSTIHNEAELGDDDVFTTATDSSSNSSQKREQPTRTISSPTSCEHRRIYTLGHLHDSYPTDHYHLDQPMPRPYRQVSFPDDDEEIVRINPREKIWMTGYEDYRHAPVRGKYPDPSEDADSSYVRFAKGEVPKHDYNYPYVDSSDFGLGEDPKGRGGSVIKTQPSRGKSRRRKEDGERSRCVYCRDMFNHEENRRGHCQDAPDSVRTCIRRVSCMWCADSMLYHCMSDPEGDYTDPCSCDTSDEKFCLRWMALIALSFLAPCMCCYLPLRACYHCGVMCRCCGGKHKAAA
row,Variant,effect of a mutation on the interaction
1,C666R,disrupting interaction strength

# Variants of: B5
# Details: with cd033_human C4orf33, Q8N1A6
row,Variant,effect of a mutation on the interaction
1,A127S,with no effect

# Variants of: B6
# Details: with mtg8_human RUNX1T1, Q06455
row,Variant,effect of a mutation on the interaction
1,E368K,with no effect
